Results on 3 molecules are retold here after patent US20240025965A1 (UNIVERSITEIT TWENTE, published 2024).

Assay [1] has as its target T1, α5β1 human recombinant protein (human, UniProt P08648 42-995; P05556 21-728).
T1 construct: Bought from R&D Systems; also called α5β1 receptor; integrin α5β1
Briefly: competition: unlabelled AV3 in excess against nAV2-FITC on coated α5β1 receptor, fluorescence intensity (counts). The method, then: (§1) The purified human recombinant α5β1 or α11β1 receptors (5 μg/ml in PBS) were coated onto 96-well ELISA plates (White Maxisorb-Nunc) by incubating overnight at 4° C. Then, the wells were blocked with blocking buffer (5% (w/v) BSA, 150 mM Nacl, 25 mM Tris) for 2 hours at room temperature. Then, the wells were washed three times with 200 μl of washing buffer (150 mM Nacl, 25 mM Tris-base, 0.005% TWEEN® 20, 0.5% BSA). Thereafter, the peptides conjugated with PEG(6)-FITC were diluted to different concentrations in washing buffer. For the competitive studies, the wells were co-incubated with 10-fold higher amount of unlabeled peptides. The plates were incubated at 37° C. for 60 minutes. Then, the wells were washed three times with washing buffer and subsequently, the plates were read for the fluorescein signal Ex/Em 485 nm/520 nm using a fluorescent plate reader (Perkin Elmer).
(§2) Blocking of the peptide with 10-fold excess of unlabeled peptide blocked the binding of nAV2-PEG(6)-fluorescein. In addition, a new short peptide (RYYRITY (SEQ ID NO:8), called AV3) was also designed because seq. 3 and seq. 4 (see the sequences above) had “YYRITY” (SEQ ID NO:10) as common amino acids and the N-terminal of the seq. 4 was crucial for the binding to the receptor. […] Therefore, AV3 was selected to move with further studies.

Assay [2] concerns the target T1, α5β1 human recombinant protein. Put plainly: microscale thermophoresis, 1 µM labelled peptide, receptor titrated, in solution. The method, then: (§3) Fluorescent labeled peptide (AV3-PEG(6)-5FAM or AXI-I-PEG(6)-FITC) (1 μM) was incubated with different concentrations of a human recombinant receptor (i.e., α5β1, α11β1 or αvβ3) for 10 minutes in Eppendorf tubes. The mixture of peptide and receptor was loaded in to NT.115™ hydrophilic glass capillaries. In order to find the best thermophoretic setting, the binding of peptide to the target receptor was examined at low (20%), middle (40%), and high (80%) MST power and all other binding experiments were performed using the same MST-settings. Finally, the dissociation constant (Kd) value was calculated from an average of three experiments.
(§4) Fluorescent labeled peptides (AV3-PEG(6)-5FAM and AXI-I-PEG(6)-FITC) were examined for their binding affinities against α5β1 and α11β1 receptors, respectively using microscale thermophoresis (MST). MST allows peptides to interact with the receptors in solution phase. These peptides were also exposed to an irrelevant receptor of the integrin family αvβ3 and MST analyses were performed.

In assay [3] the target is T2, human recombinant receptor αvβ3 (human, UniProt P06756 31-992; P05106 27-718, limits assumed).
T2 construct: also called irrelevant receptor of the integrin family
The assay is described as above. The method, then: as §3, §4

The target of assay [4] is T1, α5β1 human recombinant protein. Briefly: microscale thermophoresis, 1 µM labelled peptide with rising concentrations of the receptor in solution. The method, then: as §3, §4
Assay [5] has the same target. Briefly: FITC-labelled peptide on coated α5β1 receptor in a 96-well plate, fluorescence intensity (counts). The method, then:
as §1, §2

Primed or numbered codes have the meaning given here. Where no end group is shown, it is not given here. Side-chain parts run from the residue outwards. PEG(6) = PEG(6) linker

T1 sequence (P08648 42-995 limits assumed, chain 1 of 2): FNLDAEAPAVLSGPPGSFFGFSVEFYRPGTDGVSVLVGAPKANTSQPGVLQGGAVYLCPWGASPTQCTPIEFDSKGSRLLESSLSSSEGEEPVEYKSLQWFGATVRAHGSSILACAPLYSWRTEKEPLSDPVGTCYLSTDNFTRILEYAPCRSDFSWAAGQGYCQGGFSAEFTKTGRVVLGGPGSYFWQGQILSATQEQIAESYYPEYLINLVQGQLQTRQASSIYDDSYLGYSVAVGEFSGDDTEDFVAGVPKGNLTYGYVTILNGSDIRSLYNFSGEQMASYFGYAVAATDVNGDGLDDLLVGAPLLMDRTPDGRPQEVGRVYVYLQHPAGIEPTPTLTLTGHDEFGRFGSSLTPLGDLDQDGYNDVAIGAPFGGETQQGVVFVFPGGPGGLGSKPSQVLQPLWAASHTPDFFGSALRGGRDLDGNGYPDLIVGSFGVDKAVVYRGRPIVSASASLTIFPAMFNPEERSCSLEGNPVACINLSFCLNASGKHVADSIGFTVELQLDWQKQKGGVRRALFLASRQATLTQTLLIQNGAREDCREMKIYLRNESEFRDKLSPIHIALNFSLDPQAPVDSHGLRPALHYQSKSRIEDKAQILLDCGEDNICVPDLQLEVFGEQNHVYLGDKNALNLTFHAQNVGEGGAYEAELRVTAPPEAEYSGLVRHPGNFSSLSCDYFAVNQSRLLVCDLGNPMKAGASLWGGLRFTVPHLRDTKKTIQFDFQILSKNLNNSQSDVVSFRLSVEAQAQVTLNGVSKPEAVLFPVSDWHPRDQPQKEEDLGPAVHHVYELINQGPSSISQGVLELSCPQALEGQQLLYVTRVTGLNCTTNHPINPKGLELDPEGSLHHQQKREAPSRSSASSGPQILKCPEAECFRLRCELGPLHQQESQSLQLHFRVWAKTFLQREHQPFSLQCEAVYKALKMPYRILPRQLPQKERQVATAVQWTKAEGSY
T1 sequence (P05556 21-728 limits assumed, chain 2 of 2): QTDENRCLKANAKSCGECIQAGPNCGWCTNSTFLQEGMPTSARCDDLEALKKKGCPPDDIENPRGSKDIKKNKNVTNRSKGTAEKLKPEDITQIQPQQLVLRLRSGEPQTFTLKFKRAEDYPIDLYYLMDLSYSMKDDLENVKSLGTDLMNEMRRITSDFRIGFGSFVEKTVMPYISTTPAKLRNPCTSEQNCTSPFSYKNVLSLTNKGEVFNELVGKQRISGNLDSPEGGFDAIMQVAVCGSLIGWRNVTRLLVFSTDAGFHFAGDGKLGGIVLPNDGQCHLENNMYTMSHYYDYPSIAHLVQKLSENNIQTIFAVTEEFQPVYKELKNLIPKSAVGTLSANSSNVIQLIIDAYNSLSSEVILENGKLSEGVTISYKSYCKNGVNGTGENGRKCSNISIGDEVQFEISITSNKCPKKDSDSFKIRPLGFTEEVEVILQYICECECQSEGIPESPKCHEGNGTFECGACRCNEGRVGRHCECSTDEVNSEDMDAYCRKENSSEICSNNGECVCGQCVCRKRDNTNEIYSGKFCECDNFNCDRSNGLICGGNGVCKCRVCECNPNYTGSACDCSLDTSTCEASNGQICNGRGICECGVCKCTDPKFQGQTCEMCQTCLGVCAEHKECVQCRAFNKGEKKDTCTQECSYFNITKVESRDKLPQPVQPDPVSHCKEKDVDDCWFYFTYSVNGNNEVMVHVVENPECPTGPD
T2 sequence (P06756 31-992 limits assumed, chain 1 of 2): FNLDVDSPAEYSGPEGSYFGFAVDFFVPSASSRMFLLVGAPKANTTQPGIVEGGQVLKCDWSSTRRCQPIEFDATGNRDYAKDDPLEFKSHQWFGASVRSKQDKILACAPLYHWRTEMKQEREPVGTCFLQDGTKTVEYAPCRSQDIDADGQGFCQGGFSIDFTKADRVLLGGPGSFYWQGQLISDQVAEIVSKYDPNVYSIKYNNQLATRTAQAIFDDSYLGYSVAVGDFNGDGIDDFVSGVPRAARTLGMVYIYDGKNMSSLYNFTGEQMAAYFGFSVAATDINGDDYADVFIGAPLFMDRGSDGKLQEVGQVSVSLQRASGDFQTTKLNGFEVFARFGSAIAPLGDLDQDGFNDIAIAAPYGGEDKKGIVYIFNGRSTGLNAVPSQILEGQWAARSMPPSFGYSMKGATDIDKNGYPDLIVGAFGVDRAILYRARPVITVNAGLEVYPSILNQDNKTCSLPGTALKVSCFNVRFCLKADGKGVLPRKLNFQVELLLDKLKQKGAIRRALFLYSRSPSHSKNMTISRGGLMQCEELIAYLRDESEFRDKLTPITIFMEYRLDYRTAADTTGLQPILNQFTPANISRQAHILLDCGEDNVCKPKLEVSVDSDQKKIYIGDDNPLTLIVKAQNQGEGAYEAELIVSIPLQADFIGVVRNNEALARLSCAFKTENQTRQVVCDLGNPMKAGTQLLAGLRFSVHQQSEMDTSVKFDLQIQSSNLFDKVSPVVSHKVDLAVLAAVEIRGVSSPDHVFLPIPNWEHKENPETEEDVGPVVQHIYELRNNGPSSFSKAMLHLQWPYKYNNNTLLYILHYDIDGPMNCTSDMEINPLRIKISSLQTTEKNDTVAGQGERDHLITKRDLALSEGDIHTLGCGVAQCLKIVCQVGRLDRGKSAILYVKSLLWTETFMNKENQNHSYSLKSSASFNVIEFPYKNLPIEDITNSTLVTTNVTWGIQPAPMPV
T2 sequence (P05106 27-718 limits assumed, chain 2 of 2): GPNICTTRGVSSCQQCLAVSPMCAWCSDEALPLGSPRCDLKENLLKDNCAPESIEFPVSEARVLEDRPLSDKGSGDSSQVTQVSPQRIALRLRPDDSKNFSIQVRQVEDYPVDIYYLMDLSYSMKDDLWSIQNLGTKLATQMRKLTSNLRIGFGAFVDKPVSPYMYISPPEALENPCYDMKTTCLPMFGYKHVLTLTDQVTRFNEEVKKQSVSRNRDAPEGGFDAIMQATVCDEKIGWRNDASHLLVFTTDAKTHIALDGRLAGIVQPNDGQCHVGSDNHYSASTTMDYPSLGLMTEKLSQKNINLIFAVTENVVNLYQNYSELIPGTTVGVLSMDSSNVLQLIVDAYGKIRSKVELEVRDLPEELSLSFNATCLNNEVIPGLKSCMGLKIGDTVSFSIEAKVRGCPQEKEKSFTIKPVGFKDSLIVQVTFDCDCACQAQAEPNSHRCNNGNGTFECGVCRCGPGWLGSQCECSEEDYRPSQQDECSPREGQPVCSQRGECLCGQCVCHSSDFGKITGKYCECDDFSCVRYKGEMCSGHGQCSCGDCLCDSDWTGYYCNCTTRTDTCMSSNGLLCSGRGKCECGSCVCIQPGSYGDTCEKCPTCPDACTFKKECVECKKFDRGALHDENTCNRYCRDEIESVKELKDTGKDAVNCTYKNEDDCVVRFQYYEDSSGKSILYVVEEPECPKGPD

B1: AV3 peptide RYYRITY (peptide)
peptide: RYYRITY
notes: Unlabelled; On the peptide microarray it is linked by its N-terminus to a glass slide through a PEG linker
For the molecule B1, the binding result in assay [1] is “binds”.

B2: AV3-PEG(6)-5FAM (peptide)
peptide: RYYRITY
modifications: also: PEG(6)-5FAM conjugated, site not given here
notes: also called AV3 peptide (fluorescent labeled)
Consider B2, for which the figures for the Kd in assay [2] and in assay [3] were 97.8 nM and 36100 nM, respectively. For the same molecule, the “EC50 (read off the curve)” value in assay [4] was approximately 100 nM.

B3: FITC-labeled nAV2: YYRITYGETGGN-K-PEG(6)-Fluorescein (peptide)
peptide: YYRITYGETGGNK([PEG(6)-fluorescein])
notes: also called nAV2-FITC; nAV2-PEG(6)-fluorescein
As for B3, the binding result in assay [5] is “binds”.
